Laboratory results published in US20210403579A1 (DELINIA, published 2021).
Where a chain is given by its changes, count along the chain named. One block for each binder: values may come before it.

Molecular target: T1, Human ST2 (human, UniProt Q01638 19-328, limits assumed)
T1 construct: also called human ST2 protein; Interleukin 1 receptor-like 1
T1 sequence (looked up): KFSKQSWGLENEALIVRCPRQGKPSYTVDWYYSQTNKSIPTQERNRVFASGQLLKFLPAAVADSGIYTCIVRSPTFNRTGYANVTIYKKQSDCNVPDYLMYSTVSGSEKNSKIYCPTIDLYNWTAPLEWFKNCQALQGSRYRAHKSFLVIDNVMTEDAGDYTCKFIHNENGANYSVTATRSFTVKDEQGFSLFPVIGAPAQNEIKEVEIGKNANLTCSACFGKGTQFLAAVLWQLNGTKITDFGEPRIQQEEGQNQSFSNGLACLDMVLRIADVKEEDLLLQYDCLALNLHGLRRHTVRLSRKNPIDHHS
Assay: SPR (Carterra), antibody immobilized, ST2 analyte
Experimental: Binding of the reformatted human ST2 antibodies to the human and mouse ST2 proteins was evaluated by surface plasmon resonance (SPR), using a high throughput antibody screening and characterization platform from Carterra (Salt Lake City, Utah).

Kd: 617 nM
koff: 0.072 s⁻¹
kon: 120000 M⁻¹ s⁻¹
B1: Human ST2 IgG1 Antibody 1 (antibody, V domains shown)
VH: QVQLVQSGAEVKKPGSSVKVSCKASGGTFSSYAISWVRQAPGQGLEWMGGIIPIFGTANYAQKFQGRVTITADESTSTAYMELSSLRSEDTAVYYCAKSILGGRIFGGYFDLWGRGTLVTVSS
VL: DIVMTQSPLSLPVTPGEPASISCRSSQSLLHSNGYNYLDWYLQKPGQSPQLLIYAASSLQSGVPDRFSGSGSGTDFTLKISRVEAEDVGVYYCMQALQTPPTFGQGTKVEIKR
notes: IgG1; also called ST2 Antibody 1

Kd: 131 nM
koff: 0.079 s⁻¹
kon: 600000 M⁻¹ s⁻¹
B2: Human ST2 IgG1 Antibody 10 (antibody, V domains shown)
VH: QVQLVQSGAEVKKPGSSVKVSCKASGGTFGYYAISWVRQAPGQGLEWMGGIIPMVGTGQYAQEFQGRVTITADESTSTAYMELSSLRSEDTAVYYCAGVEVGATRGYFQHWGQGTLVTVSS
VL: B1 VL with S58T, A96G, L97T, Q98H, T99W, P101T, K108R, V109L
notes: IgG1; also called ST2 Antibody 10

Kd: 153 nM
koff: 0.017 s⁻¹
kon: 110000 M⁻¹ s⁻¹
B3: Human ST2 IgG1 Antibody 8 (antibody, V domains shown)
VH: QVQLVQSGAEVKKPGASVKVSCKASGGTFSSYAISWVRQAPGQGLEWMGWISPDNGNTNYAQKLQGRVTMTRDTSTSTVYMELSSLRSEDTAVYYCARLAYDTGYYYYYYMDVWGKGTTVTVSS
VL: B1 VL with S58T, A96G, L97T, Q98H, T99W, P101L
notes: IgG1; also called ST2 Antibody 8

Kd: 42 nM
koff: 0.017 s⁻¹
kon: 400000 M⁻¹ s⁻¹
B4: Human ST2 IgG1 Antibody 14 (antibody, V domains shown)
VH: QVQLVQSGAEVKKPGSSVKVSCKASGYTFTSYGISWVRQAPGQGLEWMGGIIPIFGTANYAPRFQGRVTITADESTSTAYMELSSLRSEDTAVYYCARDTVSMDVWGQGTTVTVSS
VL: B1 VL with A55D, S58N, Q60E, S61T, A96G, L97A, Q98H, T99W, V109L
notes: IgG1; also called ST2 Antibody 14

Kd: 12 nM
koff: 0.0025 s⁻¹
kon: 210000 M⁻¹ s⁻¹
B5: Human ST2 IgG1 Antibody 4 (antibody, V domains shown)
VH: QVQLVQSGAEVKKPGSSVKVSCKASGGTFSTFGVSWVRQAPGQGLEWMGRIIPILATTNYAQKFQGRVTITADESTSTAYMELSSLRSEDTAVYYCASGDYYDSSGYYGYFQHWGQGTLVTVSS
VL: EIVMTQSPATLSVSPGERATLSCRASQSVSSSYLAWYQQKPGQAPRLLIYGASTRATGIPARFSGSGSGTEFTLTISSLQSEDFAVYYCQQSYSIPFTFGQGTKLEIKR
notes: IgG1; also called ST2 Antibody 4

Kd: 25 nM
koff: 0.019 s⁻¹
kon: 780000 M⁻¹ s⁻¹
B6: Human ST2 IgG1 Antibody 11 (antibody, V domains shown)
VH: QVQLVQSGAEVKKPGASVKVSCKASGGTFSSYAISWVRQAPGQGLEWMGWINPNSGGTNYAQKFQGRVTMTRDTSTSTVYMELSSLRSEDTAVYYCAMDTNYYYGMDVWGQGTTVTVSS
VL: DIQMTQSPSSLSASVGDRVTITCQASEDIANNLNWYQQKPGKAPKLLIYAASSLQSGVPSRFSGSGSGTDFTLTISSLQPEDFATYYCQQGYNIPFTFGQGTKLEIKR
notes: IgG1; also called ST2 Antibody 11

Kd: 1100 nM
koff: 0.11 s⁻¹
kon: 95000 M⁻¹ s⁻¹
B7: Human ST2 IgG1 Antibody 18 (antibody, V domains shown)
VH: QVQLVQSGAEVKKPGSQVKVSCKASGYTFTSFGISWVRQAPGQGLEWLGGIIPTLGTANYAQKFQGRVTITADDSTSTAYMELSSLRSEDTAVYYCAGGAAAGPDKYYGMDVWGQGTTVTVSS
VL: not shown
notes: IgG1; also called ST2 Antibody 18

Kd: 81 nM
koff: 0.065 s⁻¹
kon: 810000 M⁻¹ s⁻¹
B8: Human ST2 IgG1 Antibody 20 (antibody, V domains shown)
VH: EVQLLESGAEVKKPGSSVKVSCKASGGTFSSYAISWVRQAPGQGLEWMGGIIPIFGTANYAQKFQGRVTITADESTSTAYMELSSLRSEDTAVYYCASGFYSNDLYYYYYMDVWGKGTTVTVSS
VL: DIQMTQSPSSLSASVGDRVTITCRASQSISSWLAWYQQKPGKAPKLLIYDASNLKTGVPSRFSGSGSGTDFTLTISSLQPEDFATYYCQQTYAIPLTFGGGTKVEIKR
notes: IgG1; also called ST2 Antibody 20

Kd: 96 nM
koff: 0.056 s⁻¹
kon: 580000 M⁻¹ s⁻¹
B9: Human ST2 IgG1 Antibody 16 (antibody, V domains shown)
VH: QVQLVQSGAEVKKPGASVKVSCKASGYTFTSHYMHWVRQAPGQGLEWMGIINPSGGSTSYAQKFQGRVTMTRDTSTSTVYMELSSLRSEDTAVYYCARAGIGYLAAHDLYYYYGMDVWGRGTLVTVSS
VL: EIVMTQSPATLSVSPGERATLSCRASQSVSSNFAWYQQKPGQAPRLLIYGASTRATGIPARFSGSGSGTEFTLTISSLQSEDFAVYYCQQYYSTPYTFGQGTKVEIKR
notes: IgG1; also called ST2 Antibody 16

Kd: 190 nM
koff: 0.048 s⁻¹
kon: 250000 M⁻¹ s⁻¹
B10: Human ST2 IgG1 Antibody 5 (antibody, V domains shown)
VH: EVQLLESGGGLVQPGGSLRLSCAASGFTFSSYWMSWVRQAPGKGLEWVSSISSDTTYKYYADSVKGRFTISRDNSKNTLYLQMNSLRAEDTAVYYCAREVDTAMKNWGQGTLVTVSS
VL: DIQMTQSPSSLSASVGDRVTITCRASQGIGNDLAWYQQKPGKAPKLLIYAASSLQSGVPSRFSGSGSGTDFTLTISSLQPEDFATYYCQQSYSTPYTFGQGTKVEIKR
notes: IgG1; also called ST2 Antibody 5

Kd: 166 nM
koff: 0.057 s⁻¹
kon: 340000 M⁻¹ s⁻¹
B11: Human ST2 IgG1 Antibody 6 (antibody, V domains shown)
VH: EVQLLESGGGLVKPGGSLRLSCAASGFTFSSYWMSWVRQAPGKGLEWVSAIGGSGAGTYYADSVKGRFTISLDDSKNTLYLQMNSLKTEDTAVYYCARLSTVTRGFDYWGQGTLVTVSS
VL: B10 VL with G28S, G30S, D32W, A50S, S56N, Y96P
notes: IgG1; also called ST2 Antibody 6

Kd: 433 nM
koff: 0.033 s⁻¹
kon: 76000 M⁻¹ s⁻¹
B12: Human ST2 IgG1 Antibody 17 (antibody, V domains shown)
VH: QVQLVQSGAEVKKPGASVKVSCKASGYTFTDSFMFWVRQAPGQGLEWVGLINPGTGATIFAQKFQGRVTMTRDTSTSTVYMELSSLRSEDTAVYYCARSSDYDSSDYWGQGTLVTVSS
VL: B10 VL with G28S, G30S, N31T, D32W, A50G, S93N, T94S
notes: IgG1; also called ST2 Antibody 17

Kd: 293 nM
koff: 0.036 s⁻¹
kon: 120000 M⁻¹ s⁻¹
B13: Human ST2 IgG1 Antibody 9 (antibody, V domains shown)
VH: EVQLLESGGGLVQPGGSLRLSCAASGFAFSSHWMHWVRQAPGKGLEWVATISSGSHSIHYADSVKGRFTISRDNSKNTLYLQMNSLRAEDTAVYYCAREAGTSYYYYGMDVWGKGTTVTVSS
VL: B10 VL with R24Q, G28D, G30R, D32Y, A34N, A50K, Q55E, Y96P, Q100G
notes: IgG1; also called ST2 Antibody 9

Kd: 113 nM
koff: 0.062 s⁻¹
kon: 550000 M⁻¹ s⁻¹
B14: Human ST2 IgG1 Antibody 19 (antibody, V domains shown)
VH: EVQLLESGGGLVQPGGSLRLSCAASGFSFSHAWMSWVRQAPGKGLEWVSVIHSGGSTFYADSVKGRFTISRDNSKNTLYLQMNSLRAEDTAVYYCARIGKGGGFDYWGQGTLVTVSS
VL: B10 VL with G28D, N31S, D32W, Y96P
notes: IgG1; also called ST2 Antibody 19

Kd: 217 nM
koff: 0.024 s⁻¹
kon: 110000 M⁻¹ s⁻¹
B15: Human ST2 IgG1 Antibody 12 (antibody, V domains shown)
VH: QVQLVQSGAEVKKPGASVKVSCKASGYTFTGYYMHWVRQAPGQGLEWMGIIDPSGGGTSYAQKFQGRVTMTRDTSTSTVYMELSSLRSEDTAVYYCAKDIVVVPAAIANYYYGMDVWGQGTTVTVSS
VL: B10 VL with A25V, G30S, D32Y, A34N, A50G, S53T, Y96W, Q100P, E105D
notes: IgG1; also called ST2 Antibody 12

Kd: 146 nM
koff: 0.042 s⁻¹
kon: 290000 M⁻¹ s⁻¹
B16: Human ST2 IgG1 Antibody 3 (antibody, V domains shown)
VH: QVQLVQSGAEVKKPGSSVKVSCKASGGTFSSYAFSWVRQAPGQGLEWMGGIIPIFGTPNYAQKFQGRVTITADESTSTAYMELSSLRSEDTAVYYCARVRAKRPNWYFDLWGRGTLVTVSS
VL: not shown
notes: IgG1; also called ST2 Antibody 3

Kd: 769 nM
koff: 0.14 s⁻¹
kon: 190000 M⁻¹ s⁻¹
B17: Human ST2 IgG1 Antibody 15 (antibody, V domains shown)
VH: B16 VH with F34I, I54M, P58T, R98T, R100A, K102A, R103G
VL: B10 VL with R24Q, G30S, D32Y, A34N, S53T, Y96P
notes: IgG1; also called ST2 Antibody 15

Kd: 15 nM
koff: 0.0044 s⁻¹
kon: 290000 M⁻¹ s⁻¹
B18: Human ST2 IgG1 Antibody 7 (antibody, V domains shown)
VH: QVQLVQSGAEVKKPGASVKVSCKASGYTFTDSYIHWVRQAPGQGLEWMGWMNPNSGNTGYAQKFQGRVTMTRDTSTSTVYMELSSLRSEDTAVYYCARGVFDYGDYGYYYHYMDVWGKGTTVTVSS
VL: DIVMTQSPLSLPVTPGEPASISCRSSQSLLHSNGYNYLDWYLQKPGQSPQLLIYGASTLQPGVPDRFSGSGSGTDFTLKISRVEAEDVGVYYCMQGTQWPTFGQGTKLEIKR
notes: IgG1; also called ST2 Antibody 7

Kd: 201 nM
koff: 0.04 s⁻¹
kon: 200000 M⁻¹ s⁻¹
B19: Human ST2 IgG1 Antibody 13 (antibody, V domains shown)
VH: QVQLVQSGAEVKKPGSSVKVSCKASGYTFTDYYMHWVRQAPGQGLEWMGGIMPLFGTIKYAQELQGRVTITADESTSTAYMELSSLRSEDTAVYYCARGRVGATDYWGQGTLVTVSS
VL: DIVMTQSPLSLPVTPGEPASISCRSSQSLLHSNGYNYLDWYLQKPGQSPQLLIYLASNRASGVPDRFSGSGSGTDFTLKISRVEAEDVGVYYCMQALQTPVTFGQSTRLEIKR
notes: IgG1; also called ST2 Antibody 13

Kd: 229 nM
koff: 0.11 s⁻¹
kon: 500000 M⁻¹ s⁻¹
B20: Human ST2 IgG1 Antibody 2 (antibody, V domains shown)
VH: QVQLVQSGAEVKKPGSSVKVSCKASGYTFSDYYVHWVRQAPGQGLEWMGGIIPIVGTANYAQKFQGRVTITADESTSTAYMELSSLRSEDTAVYYCARAGGGDYKSYYFDYWGRGTLVTVSS
VL: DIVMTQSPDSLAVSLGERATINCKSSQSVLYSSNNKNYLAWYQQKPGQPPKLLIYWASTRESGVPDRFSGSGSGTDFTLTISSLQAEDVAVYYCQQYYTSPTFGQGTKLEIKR
notes: IgG1; also called ST2 Antibody 2
